From article PMC9638024, “Functional rewiring of G protein-coupled receptor signaling in human labor” (Cell Reports, 2022)

Molecular target: FLAG-tagged EP2, P43116
Assay: PD-PALM (dual-color photoactivated localization microscopy with photoactivatable dyes); HEK 293 cells stably expressing FLAG-EP2 and transfected with HA-OTR; live labelling with anti-FLAG-CAGE 500 and anti-HA-CAGE 552, fixed, TIRF plane, 25 C; search radius 50 nm, Getis Franklin …
Details: other: PD-PALM (dual-color photoactivated localization microscopy with photoactivatable dyes)

Sequence of FLAG-tagged EP2, P43116 (P43116 whole entry): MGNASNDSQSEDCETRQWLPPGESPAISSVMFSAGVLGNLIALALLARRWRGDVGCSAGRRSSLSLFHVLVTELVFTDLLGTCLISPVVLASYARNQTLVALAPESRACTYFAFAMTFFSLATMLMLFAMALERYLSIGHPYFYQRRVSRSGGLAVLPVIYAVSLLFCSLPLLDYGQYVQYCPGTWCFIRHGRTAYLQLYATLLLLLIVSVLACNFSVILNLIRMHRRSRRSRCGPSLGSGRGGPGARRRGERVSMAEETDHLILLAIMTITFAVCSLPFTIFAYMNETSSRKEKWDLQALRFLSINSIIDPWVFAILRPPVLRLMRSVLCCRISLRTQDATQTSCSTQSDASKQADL

B1: hemagglutinin (HA)-tagged OTR (protein)
chain: MEGALAANWSAEAANASAAPPGAEGNRTAGPPRRNEALARVEVAVLCLILLLALSGNACVLLALRTTRQKHSRLFFFMKHLSIADLVVAVFQVLPQLLWDITFRFYGPDLLCRLVKYLQVVGMFASTYLLLLMSLDRCLAICQPLRSLRRRTDRLAVLATWLGCLVASAPQVHIFSLREVADGVFDCWAVFIQPWGPKAYITWITLAVYIVPVIVLAACYGLISFKIWQNLRLKTAAAAAAEAPEGAAAGDGGRVALARVSSVKLISKAKIRTVKMTFIIVLAFIVCWTPFFFVQMWSVWDANAPKEASAFIIVMLLASLNSCCNPWIYMLFTGHLFHELVQRFLCCSASYLKGRRLGETSASKKSNSSSFVLSHRSSSQRSCSQPSTA
percent of the heteromers that are heterodimers (basal): heterodimers (∼55% of the heteromers)
